Our source for the Kd values is patent publication US20260217854A1.

This experiment concerns the target coil 2 domain of TMCC3 protein (UniProt Q9ULS5). Description: ELISA on TMCC3 domain proteins. In general terms: ELISA stands for enzyme-linked immunosorbent assay.

B1: mouse anti-TMCC3 8D6 monoclonal antibody (antibody, V domains shown)
VH: EIQLQQSGGELVKPGASVKISCTASGYSFTGYNMNWVKQSHGKSPEWIGNINPYYGSTSYNQKFKGKATLTVDKSSSTAYMQLNSLTSEDSAVYYCARWLGLGYAMDYWGQGTSVTVSS
VL: DIVLTQSPASLVVSLGQGATISCRASKSVSPSGYSSMHWYQQKPGQPPKLLIYLASNLESGVPARFSGSGSGTDFTLNIHPVEEEDAATYYCQHSRELPWTFGGGTKLEIKR
Broadly, the Kd is the equilibrium constant for the complex coming apart. The low end stands for a tighter complex, the high end for a looser complex. Consider B1, for which the Kd stood at 10 pM.
